Molecular target: T1, human IL-4 receptor alpha chain (Interleukin-4 receptor subunit alpha, Uniprot #P24394, SEQ ID NO: 12) (human, UniProt P24394 26-232, limits assumed)
T1 construct: also called IL-4RA; human IL-4RA
T1 sequence: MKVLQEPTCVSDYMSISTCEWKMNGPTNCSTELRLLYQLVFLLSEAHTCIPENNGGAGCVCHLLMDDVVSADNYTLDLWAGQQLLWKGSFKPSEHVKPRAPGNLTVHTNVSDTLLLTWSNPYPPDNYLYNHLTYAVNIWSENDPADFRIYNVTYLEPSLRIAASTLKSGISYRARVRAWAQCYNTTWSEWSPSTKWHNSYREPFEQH
Assay: method not stated; target IL-4RA implied by the text

Kd: 0.154 nM
koff: 0.0029 s⁻¹
kon: 1.9e+07 M⁻¹ s⁻¹
B1: IL-4 double mutant IL-4 (R121D, Y124D) (ligand, UniProt P05112 25-153, looked up)
chain: HKCDITLQEIIKTLNSLTEQKTLCTELTVTDIFAASKNTTEKETFCRAATVLRQFYSHHEKDTRCLGATAQQFHRHKQLIRFLKRLDRNLWGLAGLNSCPVKEANQSTLENFLERLKTIMDEKDSKCSS
notes: they probably count on mature IL-4, not on the precursor entry; also called IL-4 mutant (R121D, Y124D); IL-4 mutant
